Values of other authors as cited in article PMC9887155, “Kinetics of cone specific G-protein signaling in avian photoreceptor cells” (Frontiers in Molecular Neuroscience, 2023).

Biological target: Gtα (Bos taurus) (UniProt P04695)
Test: SPR

Chain of rhodopsin (dark-adapted) (P02699 whole entry): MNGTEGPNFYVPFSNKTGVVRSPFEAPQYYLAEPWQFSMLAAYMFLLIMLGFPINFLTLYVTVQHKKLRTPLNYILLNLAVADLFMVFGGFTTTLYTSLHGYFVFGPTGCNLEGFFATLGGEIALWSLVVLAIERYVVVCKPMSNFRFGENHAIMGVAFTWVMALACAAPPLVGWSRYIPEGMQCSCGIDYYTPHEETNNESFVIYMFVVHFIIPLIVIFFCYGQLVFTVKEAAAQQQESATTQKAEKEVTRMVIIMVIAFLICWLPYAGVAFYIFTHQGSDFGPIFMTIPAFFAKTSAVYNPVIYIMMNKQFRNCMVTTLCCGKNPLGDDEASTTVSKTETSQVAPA
Chain of Gtα (Bos taurus) (P04695 2-350): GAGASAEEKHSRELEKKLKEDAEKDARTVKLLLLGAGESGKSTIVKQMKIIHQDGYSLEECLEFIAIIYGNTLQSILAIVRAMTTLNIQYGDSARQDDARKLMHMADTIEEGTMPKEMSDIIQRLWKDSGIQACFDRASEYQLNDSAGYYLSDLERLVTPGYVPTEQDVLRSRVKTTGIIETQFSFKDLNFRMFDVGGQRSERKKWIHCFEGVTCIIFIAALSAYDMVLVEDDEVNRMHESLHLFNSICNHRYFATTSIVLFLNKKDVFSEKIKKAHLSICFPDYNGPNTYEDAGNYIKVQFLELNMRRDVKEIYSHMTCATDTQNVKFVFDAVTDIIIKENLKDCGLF

- Kd: 0.36 µM
Substance: rhodopsin (dark-adapted) (from UniProt P02699)
